The values that follow are results of earlier work, collected in paper PMC4815360.

Data set [1] has as its target Endothelin receptor ETA (Homo sapiens) (UniProt P25101). Nature of the data set: radioligand.
For data set [2], the target named is Endothelin receptor ETA (Rattus norvegicus) (UniProt P26684). Put plainly: radioligand.
For data set [3] the target is unchanged. Put plainly: radioligand binding.
For data set [4], the target named is Endothelin receptor ETA (Homo sapiens) (UniProt P25101). Put plainly: saturation radioligand binding.

UniProt P26684, sequence (P26684 21-426): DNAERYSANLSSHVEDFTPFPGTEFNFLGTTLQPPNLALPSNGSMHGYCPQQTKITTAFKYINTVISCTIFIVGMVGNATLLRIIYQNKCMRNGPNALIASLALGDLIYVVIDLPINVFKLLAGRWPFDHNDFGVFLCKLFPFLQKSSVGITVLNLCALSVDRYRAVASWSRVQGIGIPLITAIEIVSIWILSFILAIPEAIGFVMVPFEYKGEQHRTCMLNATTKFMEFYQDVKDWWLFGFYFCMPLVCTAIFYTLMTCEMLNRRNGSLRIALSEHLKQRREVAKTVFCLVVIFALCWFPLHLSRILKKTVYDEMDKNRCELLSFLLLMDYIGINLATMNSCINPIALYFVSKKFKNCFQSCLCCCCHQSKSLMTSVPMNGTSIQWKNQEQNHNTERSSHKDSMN
UniProt P25101, sequence (P25101 21-427): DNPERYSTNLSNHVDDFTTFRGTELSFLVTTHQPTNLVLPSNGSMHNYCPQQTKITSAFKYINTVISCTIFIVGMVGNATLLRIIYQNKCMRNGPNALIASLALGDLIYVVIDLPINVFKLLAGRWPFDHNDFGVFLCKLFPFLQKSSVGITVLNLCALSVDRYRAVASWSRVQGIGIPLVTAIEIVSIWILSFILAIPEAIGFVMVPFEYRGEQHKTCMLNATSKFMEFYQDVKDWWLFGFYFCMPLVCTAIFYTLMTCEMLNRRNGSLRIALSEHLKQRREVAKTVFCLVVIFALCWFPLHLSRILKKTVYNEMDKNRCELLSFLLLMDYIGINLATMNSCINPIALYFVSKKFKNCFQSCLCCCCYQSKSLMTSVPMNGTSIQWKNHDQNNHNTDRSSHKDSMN

Take Endothelin-1 (from UniProt P05305): the dissociation constant Kd in data set [1] was 0.4 nM; in data set [2], 0.1 nM.

On to Endothelin-2 (from UniProt P20800), for which the Kd is 0.1 nM in data set [3] and 0.7 nM in data set [4].
